# Test results reported in the supplement of paper PMC7125110.
# ± gives the standard error. Fewer inactive variants are shown than the library holds.
# B1: glmS ribozyme (parent)
# chain: AUAAAAGCGCCAGAACUACAGAAAUGUAGUUGACGAGGAGGAGGUUUAUCGAAUUUUCGGCGGAUGCCUCCAAA
# Variants of: B1
# Assay: self-cleavage kobs at 2500 uM GlcN6P; higher = faster cleavage; RNA array
# Conditions: with glucosamine-6-phosphate
# Outline: (§1)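 Glucosamine-6-phosphate, from 40 μM to 10 mM in HEPES/KCl/Mg(OAc)2 buffer, was flowed over sequenced MiSeq chips carrying barcoded ribozyme variants transcribed in situ by E. coli RNA polymerase. A hybridised Cy3 probe tracked the variants at 37 °C as tiles were imaged over ~14 h. kobs, kcat and KM were obtained by fitting normalised per-tile medians to exponential decays and then applying weighted Michaelis–Menten fits across concentrations.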
row,Variant,self-cleavage kobs at 2500 uM GlcN6P [s⁻¹]
1,AUAAAAGCGCCAGAAUUACAGAAAUGUAGUUGACGAGGAGCAGCUUUAUCGAAUUUUCCGCGGAUGCCUCCAAA,< 1e-05
2,AUAAAAGCGCCAGAAUUACAGAAAUGUAGUUGACGAGGAGGAGGUUUAUCGAAUUUGCGGCGGAAGCCUACAAA,0.000271 ± 0.00013
3,AUAAAAGCGCCAGAACUACAGAAAUGUAAUUGACGAGGAGGAGGUUUAUCGAAUAUUCGGCGGAUGUCUCCAAA,0.000242 ± 4.9e-05
4,AUAAAAGCGCCAGAACUACAGAAAUGUAAUUGACUAGGAGGAGGUUUAUCGAUUUUUCGGCGGAUGCCUCCAAA,< 1e-05
5,AUAAAAGCGCCAGAACUACAGAAAUGUAUUUCACGAGGAGGAGGUUCAUCGAAUUUUCGGCGGAUGGCUCCAAA,< 1e-05
6,AUAAAAGCGCCAGAAUUACAGAAAUGUAGUUAACGAGGAGGAGGUUUAUCGAAUUUUCGGCGGAUGCCUCCAAA,0.00201 ± 0.00037
7,AUAAAAGCGCCAGAACUACAGAAAUGUACUUGACGAGGAGGAGGUUUAUCGGAUUUUCGGCGGAUGUCUCCAAA,7.8e-05 ± 2.1e-05
8,AUAAAAGCGCCAGAACUACAGAAAUGUAAUUGACGAGGAGUAGGUUUAUCGAAUUUUCGGCCGAUGCCUCCAAA,< 1e-05
9,AUAAAAGCGCCAGAACUACAGAAAUGUACUUGUCGAGCAGGAGGUUUAUCGAAUUAUCGGCGGAUGCCUCUAAA,< 1e-05
10,AUAAAAGCGCCAGAACUACAGAAAUGUAAUUGACGAGGAGGAGGUUUAUAGAAUUUUCGGCGGAUGGCUCCAAA,8.63e-05 ± 3.6e-05
11,AUAAAAGCGCCAGAAUUACAGAAAUGUAGUUCACGAGGAGGAGGUUUAUCGAACUUUCGGCGGAUGCCUCCAAA,5.6e-05 ± 2.1e-05
12,AUAAAAGCGCCAGAAUUACAGAAAUGUAGUUGACGAGGAGGAGGGUUAUCGAAGUUUCGGCGGAUGCCUCCAAA,0.0032 ± 0.001
13,AUAAAAGCGCCAGAACUACAGAAAUGUACUUGACGAGGAGGAGGUUUAUCGACUUUUCGGCGGAUGUCUCCAAA,0.000153 ± 4.1e-05
14,AUAAAAGCGCCAGAACUACAGAAAUGUAAUUCACGAGGAGGAGGUUUAUCGAAUUUUCGGCGGUUGCCUCCAAA,< 1e-05
15,AUAAAAGCGCCAGAAUUACAGAAAUGUAGUUUACGAGGAGGAGGUGUAUCGAAUUUUCGGCGGAUGCCUCCAAA,6.51e-05 ± 2.5e-05
16,AUAAAAGCGCCAGAACUACAGAAAUUUAGUUGUCGAGGAGGAGGUUUAUCGAAUUUUCGGCGGAUGCCUCCAAA,0.000111 ± 2.1e-05

row,Variant,self-cleavage kobs at 2500 uM GlcN6P [s⁻¹]
1,AUAAAAGCGCCAGAACUACAGAAAUGUACUUGAUGAUGAGGAGGUUUAUCGAAUUUUCGGCGGAUGCCUUCAAA,0.000116 ± 3.3e-05
2,AUAAAAGCGCCAGAACUACAGAAAUGUAAUUGACGAGGAGGAGGUUUAUCGAAUUUUCGGCGGAGGCCUCCAAA,0.000664 ± 0.00023
3,AUAAAAGCGCCAGAACUACAGAAAUUUAGUUGACGAGGAGGAGGUUUAUCGAAUUUUCGGCGGAUGUCUCCAAA,0.000381 ± 0.00017
4,AUAAAAGCGCCAGAACUACAUAAAUGUAGUUGACGAGGAGGAGGUUUAUCGAAUUUCCGGCGGAUGCCUCCAAA,9.36e-05 ± 1.4e-05
5,AUAAAAGCGCCAGAACUACAGAAAUGUACUUGACGAGGAAGUGGUUUAUCGAAUUUUCGUUGGAUGCCUCCAAA,< 1e-05
6,AUAAAAGCGCCAGAACUACAGAAAUGUACUUGACGAGGAGGAGGUUUAUUGAAUUUUCGGCGGAUGCAUCCAAA,7.07e-05 ± 2.7e-05
7,AUAAAAGCGCCAGAACUACAGAAAUGUAAUUGACGAGGAGAAGGUUUCUCGAAUUUUCGGCGGAUGCCUCGAAA,< 1e-05
8,AUAAAAGCGCCAGAAUUACAGAAAUGUAGUUGACGAGGAGGAGGUCUAUCGAAUUCUCGGCGGAUGCCUCCAAA,0.000416 ± 7.9e-05
9,AUAAAAGCGCCAGAACUACAGAAAUUUAGUUGACGCGGAGGAGGUUUAUCGAAUUUUCGGCGGAUGCCUCCAAA,< 1e-05
10,AUAAAAGCGCCAGAACUACAGAAAUGUACUUUACGAGGAGGAGGUUUAUCGAAUUUUCGGCGGAUGACUCCAAA,4.32e-05 ± 2e-05
11,AUAAAAGCGCCAGAACUACAGAAAUGUAAUUGACGAGGAGGAGGUUUAUCGAAUUUUCGUCGGAUGCCUCAAAA,< 1e-05
12,AUAAAAGCGCCAGAAUUACAGAAAUGUAGUUGACGAGGAGGAGGUUUGUCGAGUUUUCGGCGGAUGCCUCCAAA,9.32e-05 ± 2.7e-05
13,AUAAAAGCGCCAGAAUUACAGAAAUGUAGUUGACGAUGAGGGGGUUUAUCUAAUUUUCGGCGGAUGCCUCCAAA,< 1e-05
14,AUAAAAGCGCCAGAAUUACAGAAAUGUAGUUGACGAUGAGAAGGUUUAUCGAAUUUUCGGCGGAUGCCUCCAAA,< 1e-05
15,AUAAAAGCGCCAGAAUUACAGAAAUGUAGUUGACGAGAAGGAGGUUUAUCGAAUUUUCGGCGGAUACCUCCAAA,< 1e-05
16,AUAAAAGCGCCAGAACUAAAGAAAUGUAGUUGACGAGGAGGCGGUUUAUCGAAUUUUCGGCGGAUGCCUCCAAA,< 1e-05

# Variants of: B1
# Assay: self-cleavage kobs at 10000 uM GlcN6P; higher = faster cleavage; RNA array
# Conditions: with glucosamine-6-phosphate
# Outline: as §1
row,Variant,self-cleavage kobs at 10000 uM GlcN6P [s⁻¹]
1,AUAAAAGCGCCAGAAUUACAGAAAUGUAGUUUACGAGGAGGAGGUGUAUCGAAUUUUCGGCGGAUGCCUCCAAA,0.000138 ± 2.5e-05
2,AUAAAAGCGCCAGAACUACAGAAAUGUACUUGAUGAUGAGGAGGUUUAUCGAAUUUUCGGCGGAUGCCUUCAAA,3.91e-05 ± 1.8e-05
3,AUAAAAGCGCCAGAACUACAGAAAUGUAAUUGACGAGGAGGAGGUUUAUCGAAUUUUCGGCGGAGGCCUCCAAA,0.00113 ± 0.00027
4,AUAAAAGCGCCAGAACUACAGAAAUGUACUUUACGAGGAGGAGGUUUAUCGAAUUUUCGGCGGAUGACUCCAAA,0.00017 ± 2.6e-05
5,AUAAAAGCGCCAGAAUUACAGAAAUGUAGUUGACGAUGAGAAGGUUUAUCGAAUUUUCGGCGGAUGCCUCCAAA,< 1e-05
